# Source: publication PMC2818599
# pIC50: −log10 of the molar value.
# Molecular target: HLA-DR DRB1 *1101 (human)
# Test: radioligand binding
substance,measurement,value
HER-2/neu.59 (peptide),pIC50,7.52
